The data set concerns HpaII restriction endonuclease (R.HpaII) (Haemophilus parainfluenzae ATCC 49669). The data set can be described thus: cleavage_in_vitro. Particulars: IPTG-induced E. coli extract; 1x REact 8 buffer, 30 min 37 C; HpaII digest pattern on agarose gel.

Bounds are passed on as bounds.

Turning to phage lambda DNA, the activity (units per g wet cells) was > 50000.
